Experiments:
[1] = target: VEGFR-1 on transfected endothelial cells (PAE/VEGFR-1) (UniProt P17948); experiment: cell-based or functional assay
[2] = target: VEGFR-2 receptor on transfected endothelial cells (PAE/VEGFR-2) (UniProt P35968); experiment: cell-based or functional assay

UniProt P17948, sequence (P17948 27-1338 limits assumed): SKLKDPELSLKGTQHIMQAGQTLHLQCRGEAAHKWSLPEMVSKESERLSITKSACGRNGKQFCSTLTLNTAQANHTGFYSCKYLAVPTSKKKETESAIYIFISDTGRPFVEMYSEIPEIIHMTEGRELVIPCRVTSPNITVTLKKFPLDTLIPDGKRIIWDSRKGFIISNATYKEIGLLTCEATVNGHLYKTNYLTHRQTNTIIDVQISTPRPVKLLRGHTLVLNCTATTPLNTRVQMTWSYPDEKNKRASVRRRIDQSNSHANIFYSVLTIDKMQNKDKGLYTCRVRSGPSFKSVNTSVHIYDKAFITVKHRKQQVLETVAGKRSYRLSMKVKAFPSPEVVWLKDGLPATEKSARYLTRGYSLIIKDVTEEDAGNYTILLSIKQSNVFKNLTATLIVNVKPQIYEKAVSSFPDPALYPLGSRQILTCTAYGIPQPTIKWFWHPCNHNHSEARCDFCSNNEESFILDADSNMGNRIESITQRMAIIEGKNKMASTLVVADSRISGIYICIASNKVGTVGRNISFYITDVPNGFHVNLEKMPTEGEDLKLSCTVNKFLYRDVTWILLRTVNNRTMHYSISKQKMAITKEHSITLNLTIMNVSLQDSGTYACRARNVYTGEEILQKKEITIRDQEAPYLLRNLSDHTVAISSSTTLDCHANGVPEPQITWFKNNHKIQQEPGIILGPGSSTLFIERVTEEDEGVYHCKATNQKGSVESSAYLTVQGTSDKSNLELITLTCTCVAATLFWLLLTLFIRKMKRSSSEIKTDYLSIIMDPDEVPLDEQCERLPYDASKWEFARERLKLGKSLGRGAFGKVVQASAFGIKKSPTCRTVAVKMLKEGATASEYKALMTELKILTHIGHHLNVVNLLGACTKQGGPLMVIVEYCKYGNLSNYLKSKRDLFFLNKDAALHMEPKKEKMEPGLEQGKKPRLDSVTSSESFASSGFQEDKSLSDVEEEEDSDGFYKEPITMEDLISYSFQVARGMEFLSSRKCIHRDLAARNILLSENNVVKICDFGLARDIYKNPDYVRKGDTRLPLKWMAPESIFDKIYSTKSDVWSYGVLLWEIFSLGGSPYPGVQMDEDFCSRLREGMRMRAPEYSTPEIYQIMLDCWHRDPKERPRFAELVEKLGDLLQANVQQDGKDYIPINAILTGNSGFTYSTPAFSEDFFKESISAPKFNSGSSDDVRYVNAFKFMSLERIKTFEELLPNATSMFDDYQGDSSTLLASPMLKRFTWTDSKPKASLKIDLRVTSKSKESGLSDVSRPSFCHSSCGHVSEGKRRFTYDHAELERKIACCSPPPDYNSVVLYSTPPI

Row | IC50 (nM) on PEA/VEGFR-1 cells, construct pre-incubated in FBS (4 h) [1] [nM] | IC50 (nM) on PEA/VEGFR-1 cells, construct pre-incubated in PBS (4 h) [1] [nM] | IC50 (nM) on PEA/VEGFR-2 cells, construct pre-incubated in FBS (4 h) [2] [nM] | IC50 (nM) on PEA/VEGFR-2 cells, construct pre-incubated in PBS (4 h) [2] [nM] | Substance | IC50 nM, cytotoxicity on PAE/VEGFR-1 (-) control cells [1] [nM] | IC50 nM, cytotoxicity on PAE/VEGFR-2 (+) cells [2] [nM]
1 | > 100 | > 100 | 39 | 8 | EA-GrB/VEGF121 (from UniProt P15692 27-147) |  | 
2 |  | > 100 |  | 5 | EAPVPN-GrB/VEGF121 (from UniProt P15692 27-147) |  | 
3 | > 100 | > 100 | > 100 | 4 | GrB/VEGF121 (from UniProt P15692 27-147) | > 1000 | 15.3
4 | > 100 | > 100 | 63 | 8 | LA-GrB/VEGF121 (from UniProt P15692 27-147) |  | 
5 | > 100 | > 100 | 67 | 2 | LP-GrB/VEGF121 (from UniProt P15692 27-147) |  | 
6 |  | > 100 |  | 8 | PVPN-GrB/VEGF121 (from UniProt P15692 27-147) |  | 

— patent US20230203467A1
